Assay results reported in patent publication US20090081195.

Tested on: SLK (construct not stated)
Sequence (chain, as listed by the source): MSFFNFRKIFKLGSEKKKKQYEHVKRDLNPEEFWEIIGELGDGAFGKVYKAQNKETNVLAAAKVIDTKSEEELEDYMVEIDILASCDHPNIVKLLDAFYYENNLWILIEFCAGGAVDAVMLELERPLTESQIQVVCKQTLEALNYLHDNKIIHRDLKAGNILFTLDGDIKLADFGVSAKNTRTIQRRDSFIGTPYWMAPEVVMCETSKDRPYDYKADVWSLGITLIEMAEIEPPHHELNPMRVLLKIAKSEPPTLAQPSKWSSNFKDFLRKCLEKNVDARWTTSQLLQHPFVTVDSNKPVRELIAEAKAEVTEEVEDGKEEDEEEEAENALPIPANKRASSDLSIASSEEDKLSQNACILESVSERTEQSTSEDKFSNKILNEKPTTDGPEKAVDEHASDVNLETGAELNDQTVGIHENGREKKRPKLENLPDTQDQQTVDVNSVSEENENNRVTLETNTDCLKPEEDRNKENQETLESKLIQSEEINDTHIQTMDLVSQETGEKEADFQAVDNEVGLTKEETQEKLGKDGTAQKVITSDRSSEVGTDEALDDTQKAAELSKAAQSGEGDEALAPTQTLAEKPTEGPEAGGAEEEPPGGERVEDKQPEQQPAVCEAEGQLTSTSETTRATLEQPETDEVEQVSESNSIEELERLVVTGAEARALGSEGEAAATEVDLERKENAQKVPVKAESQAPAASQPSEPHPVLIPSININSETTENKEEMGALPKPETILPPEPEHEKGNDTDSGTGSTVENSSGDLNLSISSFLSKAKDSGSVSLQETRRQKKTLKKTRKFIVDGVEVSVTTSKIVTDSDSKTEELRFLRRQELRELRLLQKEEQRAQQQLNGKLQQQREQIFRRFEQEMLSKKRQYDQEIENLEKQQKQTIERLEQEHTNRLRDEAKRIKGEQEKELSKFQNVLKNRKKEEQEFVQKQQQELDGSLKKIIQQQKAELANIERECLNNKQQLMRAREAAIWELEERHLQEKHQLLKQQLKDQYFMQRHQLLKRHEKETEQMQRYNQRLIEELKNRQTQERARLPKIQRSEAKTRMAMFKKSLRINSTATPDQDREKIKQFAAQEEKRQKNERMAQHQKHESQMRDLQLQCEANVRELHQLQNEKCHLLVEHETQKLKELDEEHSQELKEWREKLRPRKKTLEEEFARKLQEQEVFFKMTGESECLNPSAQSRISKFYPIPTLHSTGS

Question: Which “SLK activity in vitro (kinase assay, autophosphorylation)” value does the source give for “nm23 (nucleoside diphosphate kinase; NDPK)” here?
Answer: nm23 is not a substrate for SLK but rather inhibits its activity in vitro through direct interaction
